According to doi:10.1101/2023.11.19.566349:
Numbering of substitutions follows the chain as printed.

Assays:
Experiment in all cases: EMSA
[1] = molecular target: T1, Tric1 SAM Gly241Glu (Arabidopsis thaliana, UniProt Q9SCK3 191-261, G241E)
T1 sequence: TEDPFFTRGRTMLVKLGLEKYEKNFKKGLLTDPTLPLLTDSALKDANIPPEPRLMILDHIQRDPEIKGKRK

[2] = molecular target: T2, Tric1 SAM Asp235Ala:Gly241Glu (Arabidopsis thaliana, UniProt Q9SCK3 191-261, D235A;G241E)
T2 sequence: T1 sequence with D45A

[3] = molecular target: T3, Tric1 SAM Asp235Ala (Arabidopsis thaliana, UniProt Q9SCK3 191-261, D235A)
T3 sequence: T1 sequence with D45A, E51G

[4] = molecular target: T4, Tric1 SAM domain WT (Arabidopsis thaliana, UniProt Q9SCK3 191-261)
T4 sequence: T1 sequence with E51G

UCGCUUUGCAUGCGA (structured_RNA) [tRNAala T-arm]: no binding [1]; no binding [2]; no binding [3]. UCGCUUUGCAUGCGA (structured_RNA) [tRNAala T-arm]: binds [4].
